The labels stand for the following.
B1: ZNF263 (parent)
chain: VPGTQVGQGGKLWDPSVQSCKEGL
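Further: lentivirally expressed fusions sorted by FACS into six bins by GFP to DsRed ratio, PSI derived from sequencing read proportions per bin multiplied by bin number.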

The data set covers variants of B1. Kind of data set: protein stability index of a GFP-peptide fusion (GPS, HEK-293T) (PSI 1-6); higher = more stable. Particulars: c terminus: a fixed tail appended.
Regarding VPGTQVGQGGKLWDPSVTSCKEGL [Q18T], the protein stability index is 4.47.
For the variant VPGTQVGQGGKLWDPRVQSCKEGL [S16R], the protein stability index worked out at 3.12.
The value for VPGTQVGQGGKLWDPYVQSCKEGL [S16Y] was 3.68; that for VPGTQVGQGGKLWDPTVQSCKEGL [S16T] was 4.58; that for VPGTQVGQGGKLWDPDVQSCKEGL [S16D] was 4.93.
With VPGTQVGQGGKLWDPGVQSCKEGL [S16G] the figure was 4.21; with VPGTQVGQGGKLWDPSVQSCKEKL [G23K], 4.35.
On to VPGTQVGQGGKLWDPSVQSCKEML [G23M], for which the protein stability index came to 3.88.
With VMGTQVGQGGKLWDPSVQSCKEGL [P2M], the protein stability index was found to be 4.26.
As to VLGTQVGQGGKLWDPSVQSCKEGL [P2L], the protein stability index came to 3.89.
With VRGTQVGQGGKLWDPSVQSCKEGL [P2R] the figure was 4.24.
For the variant VPGTQVGQGGKLWDPSVQDCKEGL [S19D], the protein stability index came to 4.88.
Regarding VPGTQVGQGGKLWDPSVQRCKEGL [S19R], the protein stability index turned out to be 3.89.
The value for VPGTQVGQGGKLWDPSVQGCKEGL [S19G] was 4.41.
Regarding VPGTQVGQGGKLHDPSVQSCKEGL [W13H], the protein stability index amounted to 4.66.
With VPGTQVGQGGKLVDPSVQSCKEGL [W13V] the figure was 4.88.
With VPGTQVGQGGKLIDPSVQSCKEGL [W13I] the figure was 4.66; with VPGTQVGQGGKLADPSVQSCKEGL [W13A], 4.8; with VPGTQVGQGGKLLDPSVQSCKEGL [W13L], 4.8.
The value for VPGTQVGQGGKLRDPSVQSCKEGL [W13R] was 4.71.
With VPGTQVGQGGKLCDPSVQSCKEGL [W13C], the protein stability index came out at 4.76.
With VPGTQVGQGGKLFDPSVQSCKEGL [W13F] the figure was 4.59.
With VPGTQVGQGGPLWDPSVQSCKEGL [K11P] the figure was 3.65; with VPGTQVGQGGHLWDPSVQSCKEGL [K11H], 4.03.
The value for VPGTQVGQGGKLWDPSVQSWKEGL [C20W] was 3.08.
Regarding VPGTQVGQGGKLWDPSVQSYKEGL [C20Y], the protein stability index worked out at 3.52.
As to VPGTQVGQGGKLWDPSVQSFKEGL [C20F], the protein stability index is 3.1.
The value for VPGTQVGQGGKLWDPSVQSDKEGL [C20D] was 4.59; that for VPGTQVGQGGKLWDPSVQSSKEGL [C20S] was 4.31; that for VPGTQVGQGGKLWDPSMQSCKEGL [V17M] was 4.06.
As to VPGTQVGQGGKLWDPSAQSCKEGL [V17A], the protein stability index is 4.38.
As for VPGTQVGQGGKLWDPSRQSCKEGL [V17R], the protein stability index stood at 4.23.
With VPGTQVGQGGKLWDPSCQSCKEGL [V17C] the figure was 4.15; with VPGTQVGQGGKLWDPSGQSCKEGL [V17G], 3.99.
As for VPGTQVGQGGKLWDPSVQSCKVGL [E22V], the protein stability index was determined as 3.79.
With VPGTQVGQGGKLWDPSVQSCKIGL [E22I] the figure was 3.23; with VPGTQVGQGGKLWDPSVQSCKNGL [E22N], 3.64.
The value for VPMTQVGQGGKLWDPSVQSCKEGL [G3M] was 3.8; that for VPQTQVGQGGKLWDPSVQSCKEGL [G3Q] was 4; that for VPRTQVGQGGKLWDPSVQSCKEGL [G3R] was 3.35.
With VPPTQVGQGGKLWDPSVQSCKEGL [G3P] the figure was 4.5; with VPHTQVGQGGKLWDPSVQSCKEGL [G3H], 4.28.
In the case of VPDTQVGQGGKLWDPSVQSCKEGL [G3D], the protein stability index was 4.96.
With VPYTQVGQGGKLWDPSVQSCKEGL [G3Y] the figure was 4.06; with EPGTQVGQGGKLWDPSVQSCKEGL [V1E], 5.15; with MPGTQVGQGGKLWDPSVQSCKEGL [V1M], 4.69.
With VPGTQVGQGGKLWSPSVQSCKEGL [D14S] the figure was 3.99.
With VPGTQVGQGGKLWIPSVQSCKEGL [D14I] the figure was 3.66; with VPGTQVGQGGKLWYPSVQSCKEGL [D14Y], 3.11.
Turning to VPGTQVGQGGKLWVPSVQSCKEGL [D14V], the protein stability index was 3.87.
The value for VPGTQVRQGGKLWDPSVQSCKEGL [G7R] was 3.68; that for VPGTQVEQGGKLWDPSVQSCKEGL [G7E] was 4.41.
The value for VPGTQVGQGGKLWDDSVQSCKEGL [P15D] was 4.29.
Turning to VPGTQVGQGGKLWDWSVQSCKEGL [P15W], the protein stability index worked out at 3.17.
The value for VPGTQVGQGGKLWDISVQSCKEGL [P15I] was 3.3; that for VPGTQVGQGGKLWDHSVQSCKEGL [P15H] was 4.01.
With VPGTQVGQRGKLWDPSVQSCKEGL [G9R] the figure was 3.67; with VPGTQVGQHGKLWDPSVQSCKEGL [G9H], 4.34.
With VPGTQVGQAGKLWDPSVQSCKEGL [G9A] the figure was 4.03.
For the variant VPGTQDGQGGKLWDPSVQSCKEGL [V6D], the protein stability index came out at 4.3.
The value for VPGTQTGQGGKLWDPSVQSCKEGL [V6T] was 4.7; that for VPGTQPGQGGKLWDPSVQSCKEGL [V6P] was 4.26.
With VPGTQVGQGVKLWDPSVQSCKEGL [G10V] the figure was 3.71; with VPGTQVGQGLKLWDPSVQSCKEGL [G10L], 3.62.
The value for VPGTQVGQGDKLWDPSVQSCKEGL [G10D] was 4.54; that for VPGTQVGQGEKLWDPSVQSCKEGL [G10E] was 4.01.
As to VPGTQVGQGGKLWDPSVQSCKEGE [L24E], the protein stability index was found to be 5.18.
With VPGTQVGQGGKLWDPSVQSCKEGD [L24D] the figure was 5.51; with VPGTQVGQGGKLWDPSVQSCKEGV [L24V], 4.35.
With VPGTQVGQGGKLWDPSVQSCKEGK [L24K], the protein stability index worked out at 4.8.
Regarding VPGTQVGQGGKLWDPSVQSCKEGY [L24Y], the protein stability index was 3.73.
With VPGTQVGQGGKLWDPSVQSCKEGF [L24F] the figure was 4.11; with VPGTFVGQGGKLWDPSVQSCKEGL [Q5F], 3.3; with VPGTCVGQGGKLWDPSVQSCKEGL [Q5C], 4.04.
Regarding VPGTAVGQGGKLWDPSVQSCKEGL [Q5A], the protein stability index was found to be 4.
The value for VPGTIVGQGGKLWDPSVQSCKEGL [Q5I] was 4.16; that for VPGTQVGQGGKLWDPSVQSCHEGL [K21H] was 4.05.
The value for VPGTQVGQGGKLWDPSVQSCGEGL [K21G] was 3.99; that for VPGTQVGQGGKLWDPSVQSCTEGL [K21T] was 5.17.
As for VPGTQVGQGGKLWDPSVQSCWEGL [K21W], the protein stability index is 3.52.
As to VPGKQVGQGGKLWDPSVQSCKEGL [T4K], the protein stability index came out at 3.96.
Consider VPGNQVGQGGKLWDPSVQSCKEGL [T4N], for which the protein stability index came to 4.44.
For VPGPQVGQGGKLWDPSVQSCKEGL [T4P], the protein stability index worked out at 4.29.
With VPGYQVGQGGKLWDPSVQSCKEGL [T4Y], the protein stability index amounted to 4.08.
As for VPGTQVGTGGKLWDPSVQSCKEGL [Q8T], the protein stability index is 3.56.
With VPGTQVGFGGKLWDPSVQSCKEGL [Q8F] the figure was 4.17; with VPGTQVGYGGKLWDPSVQSCKEGL [Q8Y], 3.21; with VPGTQVGHGGKLWDPSVQSCKEGL [Q8H], 4.12.
Regarding VPGTQVGQGGKGWDPSVQSCKEGL [L12G], the protein stability index came to 3.97.
VPGTQVGQGGKMWDPSVQSCKEGL [L12M]: the protein stability index was 4.07.
With VPGTQVGQGGKEWDPSVQSCKEGL [L12E] the figure was 3.97.
On to VPGTQVGQGGKTWDPSVQSCKEGL [L12T], for which the protein stability index was determined as 4.34.
As to VPGTQVGQGGKDWDPSVQSCKEGL [L12D], the protein stability index was found to be 4.89.
Consider VPGTQVGQGGKKWDPSVQSCKEGL [L12K], for which the protein stability index came out at 4.37.
